T1: extracellular domain of hIFNGR1 (human, UniProt P15260 18-245, conjugated to Alexa647 (site not stated))
T1 construct: UniProt P15260 residues 18-245; also called hIFNGR1-ECD; human IFNGR1 ECD
T1 sequence: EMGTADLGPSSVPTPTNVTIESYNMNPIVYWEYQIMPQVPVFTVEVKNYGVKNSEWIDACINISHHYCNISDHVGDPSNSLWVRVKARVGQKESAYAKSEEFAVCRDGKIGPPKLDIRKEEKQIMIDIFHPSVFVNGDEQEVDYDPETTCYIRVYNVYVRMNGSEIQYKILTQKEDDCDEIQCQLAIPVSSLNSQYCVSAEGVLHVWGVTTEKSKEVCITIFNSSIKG

T2: extracellular domain of hIFNGR2 (human, UniProt P38484 28-247, conjugated to Alexa647 (site not stated))
T2 construct: also called hIFNGR2-ECD; human IFNGR2 ECD
T2 sequence: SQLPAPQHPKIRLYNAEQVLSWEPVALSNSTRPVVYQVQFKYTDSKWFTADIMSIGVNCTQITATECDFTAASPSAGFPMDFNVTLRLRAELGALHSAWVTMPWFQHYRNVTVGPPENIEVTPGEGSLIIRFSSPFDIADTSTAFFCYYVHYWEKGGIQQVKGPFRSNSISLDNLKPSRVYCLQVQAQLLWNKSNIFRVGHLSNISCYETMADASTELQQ


These binders were tested against T1, extracellular domain of hIFNGR1 (assay: flow cytometry, yeast-displayed VHH, 100 nM Alexa647-conjugated antigen).
Procedure: (§1) Binding of individual VHH to human and murine antigen was tested by flow cytometry. Briefly, 2E5 yeast cells expressing a single sdAb clone were added to each well of a 96 well plate. The first plate was incubated with 100 nM of human antigen conjugated to Alexa647 whereas the second plate was incubated with 100 nM of murine antigen conjugated to Alexa647. Yeast cells were washed 3 times with PBS containing 1% bovine serum albumin. Yeast cells were analyzed using flow cytometry and clones showing a mean fluorescence intensity of greater than 1000 were considered as binding molecules. Specificity of sdAbs was confirmed by incubating yeast cells with a irrelevant protein conjugated to Alexa647. Positive clones were sequenced, and sequences analyzed to identify unique clonotypes.

| binding result | Binder |
| --- | --- |
| binds | DR919 (VHH, also called anti-IFNGR1 sdAb VHH DR919) VHH: EVQLVESGGGLVQPGGFLRLSCAASRRTLSTYAMGWFRQAPGKEREFVAAISWRSGNTYYADSVKGRFTISRDNAKNTMYLQMNSLKPEDTAVYYCAANEVATMSGPHDHWGQGTLVTVSS |
| binds | DR904 (VHH, also called anti-IFNGR1 sdAb VHH DR904) VHH: EVQLVESGGGLVQAGGSLRLSCEASESILSINTMGWFRQAPGKQRELVAAISSGGSTNYADSVKGRFTISRDNAKNTVYLQMNSLKPEDTAVYYCDADRAYYKGQGTQVTVSS |
| binds | DR921 (VHH, also called anti-IFNGR1 sdAb VHH DR921) VHH: QVQLVESGGGLVQAGDSLRLSCAASGRTFTFSTHNMGWFRQAPGKEREFVGGIMWTSRASYADSVKGRFTVSRDNAKNTVYLQMNSLKPEDTAVYYCAAAWYGNSGASYDYWGQGTQVTVSS |

The binders below were run against T2, extracellular domain of hIFNGR2 in the same assay as above.
Procedure: as §1

| Binder | binding result |
| --- | --- |
| DR929 (VHH, also called anti-IFNGR2 sdAb VHH DR929) VHH: QVQLVESGGGLVQAGGSLRLSCVASGRTFSSYAMGWFRQTPGKEREFVSAISRGGGSTDYADSVKGRFTISRDNAKNTVYLQMNNLKSEDTAVYYCALRAYSGRYYQFLEYDYWGQGTQVTVSS | binds |
| DR939 (VHH, also called anti-IFNGR2 sdAb VHH DR939) VHH: EVQLVESGGGLVQAGGSMRLSCANSGRTFGTYAMGWFRQSPGKERERVASIDRDGSMSYYADSVKGRFTISGDNAKNTVYLQMNSLKPEDTAVYYCAASRRAVISLQTVDYWGQGTQVTVSS | binds |
| DR946 (VHH, also called anti-IFNGR2 sdAb VHH DR946) VHH: QVQLVESGGGLVQPGESLRLSCAASGPFTRYAMGWFRQAPGKEREFVAAISWSSGNTYYVDSVKGRFTISRDNAKNTMYLQMNSLKPEDTAVYYCAANEVATMSGPDDYWGQGTQVTVSS | binds |
| DR934 (VHH, also called anti-IFNGR2 sdAb VHH DR934) VHH: QVQLVESGGGLVQAGGSLRLSCAASGRSFANYAMGWFRQAPGKERETVAAISRGGGSTWYADSVKGRFTISKDNAKNTVYLQMNSLKPEDTAIYYCAARSYSGSYTYSFGEYDYWGQGTQVTVSS | binds |
| DR951 (VHH, also called anti-IFNGR2 sdAb VHH DR951) VHH: QVQLVESGGGLVQAGGSLRLSCAASGRTFGTSFGSLSMGWFRQAPGKEREFVAAISRNIGRTYYADSVKDRFTISRDNAKNTASLQMNSLEPEDTAVYNCAATNSYDDLRRSYAYDYWGQGTQVTVSS | binds |
| DR930 (VHH, also called anti-IFNGR2 sdAb VHH DR930) VHH: EVQLVESGGGLVQAGGSLRLSCTVSGRTFSSYAVAWFRQAPGNVRELAAALSRGGGSAYYTDSVKGRFTISRDNAKNTVYLQMNSLKPEDTAVYYCAARNYDGTYYQENQYNYWGQGTQVTVSS | binds |
| DR931 (VHH, also called anti-IFNGR2 sdAb VHH DR931) VHH: QVQLVESGGGLVQAGGSLLLSCAASGRTFSTYAMGWFRQAPGKERMFVAAISVNGGSTYYADSVTGRFTISRDNAKNTMYLQMNNLKPGDTAVYYCAARRPYPGSDFLTWASYDYRGQGTLVTVSS | binds |
| DR940 (VHH, also called anti-IFNGR2 sdAb VHH DR940) VHH: EVQLVESGGRLVQTGGSLRLSCAASGRTFSNYAMGWFRQAPGKEREFVAAISWYSGNTYYADSVKGRFTISRDNAKNTMYLQMNSLKPEDTAVYYCAANQIATMISVGDYWGQGTLVTVSS | binds |
| DR933 (VHH, also called anti-IFNGR2 sdAb VHH DR933) VHH: QVQLVESGGGLVQPGDSLRLSCVASGGTISSLAMGWFRQAPGKEREFVAAISWSGRSTYYVDSVKGRFTISTDNAKNTVYLQMNSLKPEDTAVYYCVAGEDGHSEYDYWGQGTQVTVSS | binds |
| DR947 (VHH, also called anti-IFNGR2 sdAb VHH DR947) VHH: QVQLVESGGGLVQAGGSLRLSCAASGGSFGRYTMGWYRQAPGKEREFVAVISWSGTNTYYADSVKGRFTISRDNAKNTMYLQMNDLKPEDTAVYYCAARETYYSHWDERMEYDYWGQGTQVTVSS | binds |

The next lines start with the values.

| binding result | Binder |
| --- | --- |
| binds | DR943 (VHH, also called anti-IFNGR2 sdAb VHH DR943) VHH: QVQLVESGGGLVQAGGSLRLSCVASGRTVGYGMAWFRQAPGKQRDVVAAITWSGTSTYYPDSVKGRFTISRDNAKNTMYLQMSSLKPEDTAVYYCAAGSRRRVGVDVGGYDYWGQGTQVTVSS |
| binds | DR948 (VHH, also called anti-IFNGR2 sdAb VHH DR948) VHH: QVQLVESGGGLVQAGDSLRLSCVASGSIDSSYYVSWFRQAPGKERDLVAAINWGDSRTAYADSVKGRFTISRDNAKNTVYLQMHSLRPNDTAVYYCASRIGLGGPVVAAPTRYPYWGQGTLVTVSS |
| binds | DR938 (VHH, also called anti-IFNGR2 sdAb VHH DR938) VHH: QVQLVESGGGLVQPGGSLRLSCTASGRPRTTYAMGWFRQAPGKEREIVAAISKAGGSTYVADSAKGRFAISKDNAKNTVYLQMNSLKPEDTAVYYCAARAGFAAQIFEYDYWGQGTLVTVSS |
| binds | DR952 (VHH, also called anti-IFNGR2 sdAb VHH DR952) VHH: QVQLVESGGGLVQAGGFLRLSCAASGRTFSSLAMAWFRQAPGKEREFVAAISRSGGSTDYADSVKGRFTISRDNAKSTLYLQMSSLKPEDTAVYYCAARDYSTLQYYNEYEYSDWGQGTLVTVSS |
| binds | DR935 (VHH, also called anti-IFNGR2 sdAb VHH DR935) VHH: QVQLVESGGGLVQAGGSLRLSCAASGRAFSTYALGWFRQAPGKEREFIAAISRGGGSTDYADSVKGRFTISRDNAKSTVYLQMNSLKPEDTAVYYCAARSYSSSYYYSQYEYDYWGQGTQVTVSS |
| binds | DR950 (VHH, also called anti-IFNGR2 sdAb VHH DR950) VHH: QVQLVESGGGLVQAGGSLRLSCAASGLTTSSAALAWFRQAPGKERELDPTITSGGGSTYYADSVKGRFTISKDNAKNTLYLQMSSLKPEDTAVYYCAARFYSTTYYYREHEYSDWGQGTQVTVSS |
| binds | DR927 (VHH, also called anti-IFNGR2 sdAb VHH DR927) VHH: QVQLVESGGGLVQAGGSLRLSCAASGRTFTSYAMNWFRQAPGKEREFVAAISWSSGNTYVADSVKGRFAISRDKAKNTMYLQMNSLAPEDTAVYYCAATTIATMSDEYTYWGQGTQVTVSS |
| binds | DR936 (VHH, also called anti-IFNGR2 sdAb VHH DR936) VHH: EVQLVESGGGLVQAGGSLRLSCAASGRTFSSVAMAWFRQAPGKEREFVSAISSGGGSTDYADSVKGRFTISKDNAKNTMYLQMDSLKPEDTAVYYCAARDYSSRRYYQSRYEYDLWGLGTQVTVSS |
| binds | DR937 (VHH, also called anti-IFNGR2 sdAb VHH DR937) VHH: QVQLVESGGGLVQPGGSLRLSCAASGRTFRSYSMGWFRQAPGKEREFVAAISWYSGTTYYADPVKGRFTISRDDAKNTLYLQMNSLKPEDTAVYYCAANEIATMESSNDYWGQGTQVTVSS |
| binds | DR941 (VHH, also called anti-IFNGR2 sdAb VHH DR941) VHH: QVQLVESGGGLVEAGGSLRLACAASGSIFRLNLMGWYRQAPGKQRELVAHVGTTGNTAYADSVKGRFTISKDDAKNMVFLQMNSLKPEDTAVYYCYADRWGQFSWGQGTQVTVSS |
| binds | DR928 (VHH, also called anti-IFNGR2 sdAb VHH DR928) VHH: QVQLVESGGGLVQAGGSLRLSCAASGRTFSNYRMGWFRQAPGKEREFVAAISRGGGTTLYADSVKGRFTISRDNAKNTVDLQMNRLKPEDTAVYFCAAGDFSTTWDEYNYWGQGTQVTVSS |
| binds | DR949 (VHH, also called anti-IFNGR2 sdAb VHH DR949) VHH: QVQLVESGGGLVQAGGSLRLSCAASESILRFNVMSWLRQAPGKQRELVAVITSGGSTNYADSVKGRFTISRDNAKNTVYLQMNSLKPEDTAVYYCAADESGQYYWGQGTQVTVSS |
| binds | DR932 (VHH, also called anti-IFNGR2 sdAb VHH DR932) VHH: QVQLVESGGGLVQAGGFLRLSCAASGRTFSYTTIGWFRQAPGKEREFVAVISAGGGSRDYADALKGRFTISRDNAKKMVYLQMNNLKPEDTAVYYCAVRRNTDTYTTTGDYDYWGQGTQVTVSS |

— patent US20230272088A1 (SYNTHEKINE, published 2023)
